B1: unnamed (protein)
chain: MEPGSKSVSRSDWQPEPHQRPITPLEPGPEKTPIAQPESKTLQGSNTQQKPASNQRPLTQQETPAQHDAESQKEPRAQQKSASQEEFLAPQKPAPQQSPYIQRVLLTQQEAASQQGPGLGKESITQQEPALRQRHVAQPGPGPGEPPPAQQEAESTPAAQAKPGAKREPSAPTESTSQETPEQSDKQTTPVQGAKSKQGSLTELGFLTKLQELSIQRSALEWKALSEWVTDSESESDVGSSSDTDSPATMGGMVAQGVKLGFKGKSGYKVMSGYSGTSPHEKTSARNHRHYQDTASRLIHNMDLRTMTQSLVTLAEDNIAFFSSQGPGETAQRLSGVFAGVREQALGLEPALGRLLGVAHLFDLDPETPANGYRSLVHTARCCLAHLLHKSRYVASNRRSIFFRTSHNLAELEAYLAALTQLRALVYYAQRLLVTNRPGVLFFEGDEGLTADFLREYVTLHKGCFYGRCLGFQFTPAIRPFLQTISIGLVSFGEHYKRNETGLSVAASSLFTSGRFAIDPELRGAEFERITQNLDVHFWKAFWNITEMEVLSSLANMASATVRVSRLLSLPPEAFEMPLTADPTLTVTISPPLAHTGPGPVLVRLISYDLREGQDSEELSSLIKSNGQRSLELWPRPQQAPRSRSLIVHFHGGGFVAQTSRSHEPYLKSWAQELGAPIISIDYSLAPEAPFPRALEECFFAYCWAIKHCALLGSTGERICLAGDSAGGNLCFTVALRAAAYGVRVPDGIMAAYPATMLQPAASPSRLLSLMDPLLPLSVLSKCVSAYAGAKTEDHSNSDQKALGMMGLVRRDTALLLRDFRLGASSWLNSFLELSGRKSQKMSEPIAEPMRRSVSEAALAQPQGPLGTDSLKNLTLRDLSLRGNSETSSDTPEMSLSAETLSPSTPSDVNFLLPPEDAGEEAEAKNELSPMDRGLGVRAAFPEGFHPRRSSQGATQMPLYSSPIVKNPFMSPLLAPDSMLKSLPPVHIVACALDPMLDDSVMLARRLRNLGQPVTLRVVEDLPHGFLTLAALCRETRQAAELCVERIRLVLTPPAGAGPSGETGAAGVDGGCGGRH
B2: unnamed (protein)
chain: AEVCYSHLGCFSDEKPWAGTSQRPIKSLPSDPKKINTRFLLYTNENQNSYQLITATDIATIKASNFNLNRKTRFIIHGFTDSGENSWLSDMCKNMFQVEKVNCICVDWKGGSKAQYSQASQNIRVVGAEVAYLVQVLSTSLNYAPENVHIIGHSLGAHTAGEAGKRLNGLVGRITGLDPAEPYFQDTPEEVRLDPSDAKFVDVIHTDISPILPSLGFGMSQKVGHMDFFPNGGKDMPGCKTGISCNHHRSIEYYHSSILNPEGFLGYPCASYDEFQESGCFPCPAKGCPKMGHFADQYPGKTNAVEQTFFLNTGASDNFTRWRYKVTVTLSGEKDPSGNINVALLGKNGNSAQYQVFKGTLKPDASYTNSIDVELNVGTIQKVTFLWKRSGISVSKPKMGASRITVQSGKDGTKYNFCSSDIVQENVEQTLSPC
B3: unnamed (protein)
chain: MVLKQRANYLGFLIVFFTAFLVEAVPIKRQSNSTVDSLPPLIPSRTSAPSSSPSTTDPEAPAMSRNGPLPSDVETKYGMALNATSYPDSVVQAMSIDGGIRAATSQEINELTYYTTLSANSYCRTVIPGATWDCIHCDATEDLKIIKTWSTLIYDTNAMVARGDSEKTIYIVFRGSSSIRNWIADLTFVPVSYPPVSGTKVHKGFLDSYGEVQNELVATVLDQFKQYPSYKVAVTGHSLGGATALLCALDLYQREEGLSSSNLFLYTQGQPRVGDPAFANYVVSTGIPYRRTVNERDIVPHLPPAAFGFLHAGEEYWITDNSPETVQVCTSDLETSDCSNSIVPFTSVLDHLSYFGINTGLCT
B4: unnamed (protein)
chain: MRSSLVLFFVSAWTALASPIRREVSQDLFNQFNLFAQYSAAAYCGKNNDAPAGTNITCTGNACPEVEKADATFLYSFEDSGVGDVTGFLALDNTNKLIVLSFRGSRSIENWIGNLNFDLKEINDICSGCRGHDGFTSSWRSVADTLRQKVEDAVREHPDYRVVFTGHSLGGALATVAGADLRGNGYDIDVFSYGAPRVGNRAFAEFLTVQTGGTLYRITHTNDIVPRLPPREFGYSHSSPEYWIKSGTLVPVTRNDIVKIEGIDATGGNNQPNIPDIPAHLWYFGLIGTCL
B5: unnamed (protein)
chain: MAKKDEHLRKPEWLKIKLNTNENYTGLKKLMRENNLHTVCEEAKCPNIHECWAVRRTATFMILGSVCTRACRFCAVKTGLPTELDLQEPERVADSVALMNLKHAVITAVARDDQKDGGAGIFAETVRAIRRKSPFTTIEVLPSDMGGNYDNLKTLMDTRPDILNHNIETVRRLTPRVRARATYDRSLEFLRRAKEMQPDIPTKSSIMIGLGETKEEIIEVMDDLLANNVDIMAIGQYLQPTKKHLKVQKYYHPDEFAELKEIAMQKGFSHCEAGPLVRSSYHADEQVNEASKKRQAQA
B6: unnamed (protein)
chain: MTEPTVARPDIDPVLKMLLDTFPVTFTAADGVEVARARLRQLKTPPELLPELRIEERTVGYDGLTDIPVRVYWPPVVRDNLPVVVYYHGGGWSLGGLDTHDPVARAHAVGAQAIVVSVDYRLAPEHPYPAGIDDSWAALRWVGENAAELGGDPSRIAVAGDSAGGNISAVMAQLARDVGGPPLVFQLLWYPTTMADLSLPSFTENADAPILDRDVIDAFLAWYVPGLDISDHTMLPTTLAPGNADLSGLPPAFIGTAEHDPLRDDGACYAELLTAAGVSVELSNEPTMVHGYVNFALVVPAAAEATGRGLAALKRALHA

Substrate: p-NP-C4
Settings: pH 7; 25 °C

Row | Protein | Km [mM] | kcat [s⁻¹] | kcat/Km [M⁻¹ s⁻¹]
1 | B1 | 1 | 190 | 190000
2 | B2 | 1 | 50 | 50000
3 | B3 | 2.1 | 420 | 200000
4 | B4 | 2.5 | 580 | 232000
5 | B5 | 0.75 | 50 | 66700
6 | B6 | 0.05 | 185 | 3.7e+06

Substrate: tributyrin
Settings: pH 7; 25 °C

Row | Protein | Km [mM] | kcat [s⁻¹] | kcat/Km [M⁻¹ s⁻¹]
7 | B1 | 0.4 | 18 | 45000
8 | B2 | 0.45 | 1500 | 3.33e+06
9 | B3 | 0.45 | 1080 | 2.4e+06
10 | B4 | 0.5 | 2250 | 4.5e+06
11 | B5 | 0.4 | 100 | 250000

Substrate: tripropionin
Settings: pH 7; 25 °C

Row | Protein | Km [mM] | kcat [s⁻¹] | kcat/Km [M⁻¹ s⁻¹]
12 | B1 | 15 | 7 | 467
13 | B2 | 10.5 | 750 | 71400
14 | B3 | 18 | 200 | 11100
15 | B4 | 14 | 225 | 16100
16 | B5 | 12 | 150 | 12500

Substrate: vinyl acetate
Settings: pH 7; 25 °C

Row | Protein | Km [mM] | kcat [s⁻¹] | kcat/Km [M⁻¹ s⁻¹]
17 | B1 | 170 | 140 | 824
18 | B2 | 295 | 70 | 237
19 | B3 | 120 | 950 | 7920
20 | B4 | 280 | 455 | 1630
21 | B5 | 280 | 100 | 357

Substrate: vinyl butyrate
Settings: pH 7; 25 °C

Row | Protein | Km [mM] | kcat [s⁻¹] | kcat/Km [M⁻¹ s⁻¹]
22 | B1 | 11 | 210 | 19100
23 | B2 | 20 | 200 | 10000
24 | B3 | 15 | 5390 | 359000
25 | B4 | 20 | 2600 | 130000
26 | B5 | 40 | 635 | 15900

Substrate: vinyl laurate
Settings: pH 7; 25 °C

Row | Protein | Km [mM] | kcat [s⁻¹] | kcat/Km [M⁻¹ s⁻¹]
27 | B1 | 3 | 31 | 10300
28 | B2 | 1.25 | 125 | 100000
29 | B3 | 2 | 5400 | 2.7e+06
30 | B4 | 4 | 12000 | 3e+06
31 | B5 | 5 | 145 | 29000

Substrate: vinyl propionate
Settings: pH 7; 25 °C

Row | Protein | Km [mM] | kcat [s⁻¹] | kcat/Km [M⁻¹ s⁻¹]
32 | B1 | 70 | 105 | 1500
33 | B2 | 50 | 270 | 5400
34 | B3 | 35 | 3680 | 105000
35 | B4 | 100 | 1950 | 19500
36 | B5 | 75 | 1940 | 25800

Substrate: triacetin
Settings: pH 7; 25 °C

Row | Protein | Km [mM] | kcat [s⁻¹] | kcat/Km [M⁻¹ s⁻¹]
37 | B2 | 120 | 555 | 4630
38 | B3 | 210 | 10 | 47.6
39 | B5 | 110 | 120 | 1090
